Assay results: publication PMC8223533

Tests used:
[1] = molecular target: SctV (SsaV) of the Salmonella enterica serovar Typhimurium SPI-2 injectisome, full-length, C-terminal 6xHis (Salmonella enterica serovar Typhimurium (strain 12023)) (UniProt P74856); test: negative stain EM; purified SctV at about 0.05 mg/ml, 2% uranyl acetate, continuous carbon grids
[2] = molecular target: SctV (SsaV) of the Salmonella enterica serovar Typhimurium SPI-2 injectisome, full-length, C-terminal 6xHis (Salmonella enterica serovar Typhimurium (strain 12023)) (UniProt P74856); test: SEC; Superose 6 10/300, 50 mM Tris-HCl pH 8.0, 50 mM NaCl, 0.03% DDM, 5 mM DTT; DDM-solubilised SctV
[3] = molecular target: SctV (SsaV) of the Salmonella enterica serovar Typhimurium SPI-2 injectisome, full-length, C-terminal 6xHis (Salmonella enterica serovar Typhimurium (strain 12023)) (UniProt P74856); test: cryo-EM 2D classification; amphipol A8-35-stabilised SctV on UltrAufoil gold grids without support film; 2D class averages only
[4] = molecular target: SctV (SsaV) of the Salmonella enterica serovar Typhimurium SPI-2 injectisome, full-length, C-terminal 6xHis (Salmonella enterica serovar Typhimurium (strain 12023)) (UniProt P74856); test: cryo-EM structure; DDM-solubilised full-length SctV at ~1 mg/ml on continuous carbon film; C9 symmetry imposed, refinement focused on the cytoplasmic domain; buffer pH 8.0

Measured: stoichiometry N

SctV (SsaV) of the Salmonella enterica serovar Typhimurium SPI-2 injectisome, full-length, C-terminal 6xHis (from UniProt P74856 1-681) (natural protein)
9: all assays above
